Source: paper PMC11580989

Biological target: Rad52^ΔN* (Saccharomyces cerevisiae)
Assay: mass photometry

Saccharomyces cerevisiae Rad51 (from UniProt P25454 1-400) (natural protein)
stoichiometry N: 1
